Measurements from patent publication US20240034813A1 (Janssen / Centocor, published 2024).

Experiments:
[1] = molecular target: T1, recombinant cMet/HGFR with c-terminal His-tag, Cy5-labeled (UniProt P08581 25-932, limits assumed, Cy5 label (reacted with Cy5 Mono NHS Ester; sites not stated)); assay: competitive TR-FRET (Eu-amivantamab/Cy5-c-MET), EC50 ratio vs Reference Material; Ex. 11 drug product, 3 months at 5 C
T1 construct: Commercial protein; also called Cy5-c-MET; Cy5-labeled c-MET antigen; not shown: C-terminal His-tag
Source text: (§1) In this procedure, varying concentrations of unlabeled bispecific EGFR-cMet antibody sample compete with donor fluorophore (Europium (Eu) chelate) labeled bispecific EGFR-cMet antibody for binding to an acceptor fluorophore (Cy5)-labeled c-MET antigen. Excitation of the donor fluorophore results in a transfer of energy to the bound acceptor fluorophore (FRET process). The resultant FRET is detected by emission of light at 665 nm using a microplate reader capable of measuring time-resolved fluorescence. Sample dose response curves are compared to the Reference Material (RM).
(§2) c-MET Binding Materials and Methods. Certified commercial cMet, a recombinant cMet/HGFR with c-terminal His-tag is reacted with certified commercial Cy5 Mono NHS Ester to produce Cy5-labeled c-MET. Validated bispecific EGFR-cMet antibody is reacted with certified commercial Europium (Eu) chelate to produce Eu labeled bispecific EGFR-cMet antibody. […] Fluorescence is then measured by spectrophotometry at 665 nm, plotted against antibody concentration and analyzed by a four-parameter logistic model. The antibody concentration required to obtain half of the maximum fluorescence response (EC50) is determined for RM, assay control and samples. The potencies of assay control and samples are calculated based on the ratio of the sample (or control) and RM EC50 values and reported as a percentage activity relative to the RM.

[2] = molecular target: T1, recombinant cMet/HGFR with c-terminal …; assay: competitive TR-FRET (Eu-amivantamab/Cy5-c-MET), EC50 ratio vs Reference Material; Ex. 11 drug product, 0 months, 5 C table
Source text: as §1, §2

[3] = molecular target: T1, recombinant cMet/HGFR with c-terminal …; assay: competitive TR-FRET (Eu-amivantamab/Cy5-c-MET), EC50 ratio vs Reference Material; Ex. 2 Formulation 3 (acetate), 3 months at 5 C
Source text: as §1, §2

[4] = molecular target: T2, recombinant human EGFR/ErbB1/HER1 with C-terminal His tag, Cy5-labeled (human, UniProt P00533 25-645, Cy5 label (reacted with Cy5 Mono NHS Ester; sites not stated)); assay: competitive TR-FRET (Eu-amivantamab/Cy5-EGFR), EC50 ratio vs Reference Material; Ex. 12 drug product with rHuPH20, 1 month at 40 C
T2 construct: Commercial protein; also called Cy5-EGFR; Cy5-labeled EGFR antigen; not shown: C-terminal His tag
Source text: as §1, with “EGFR” for “c-MET”, “RM.” for “Reference Material (RM).”
as §2, with “EGFR” for “c-MET”, “EGFR,” for “cMet,”, “human EGFR/ErbB1/HER1” for “cMet/HGFR”, “C-terminal His tag” for “c-terminal His-tag”, “EGFR.” for “c-MET.”, “Eu-labeled” for “Eu labeled”

[5] = molecular target: T1, recombinant cMet/HGFR with c-terminal …; assay: competitive TR-FRET (Eu-amivantamab/Cy5-c-MET), EC50 ratio vs Reference Material; Ex. 12 drug product with rHuPH20, 9 months at 5 C
Source text: as §1, §2

[6] = molecular target: T2, recombinant human EGFR/ErbB1/HER1 with …; assay: competitive TR-FRET (Eu-amivantamab/Cy5-EGFR), EC50 ratio vs Reference Material; Ex. 2 Formulation 1 (10 mM histidine), T0, 40 C table
Source text: as §1, with “EGFR” for “c-MET”, “RM.” for “Reference Material (RM).”
as §2, with “EGFR” for “c-MET”, “EGFR,” for “cMet,”, “human EGFR/ErbB1/HER1” for “cMet/HGFR”, “C-terminal His tag” for “c-terminal His-tag”, “EGFR.” for “c-MET.”, “Eu-labeled” for “Eu labeled”

[7] = molecular target: T2, recombinant human EGFR/ErbB1/HER1 with …; assay: competitive TR-FRET (Eu-amivantamab/Cy5-EGFR), EC50 ratio vs Reference Material; Ex. 12 drug product with rHuPH20, 0 months, 5 C table
Source text: as §1, with “EGFR” for “c-MET”, “RM.” for “Reference Material (RM).”
as §2, with “EGFR” for “c-MET”, “EGFR,” for “cMet,”, “human EGFR/ErbB1/HER1” for “cMet/HGFR”, “C-terminal His tag” for “c-terminal His-tag”, “EGFR.” for “c-MET.”, “Eu-labeled” for “Eu labeled”

[8] = molecular target: T2, recombinant human EGFR/ErbB1/HER1 with …; assay: competitive TR-FRET (Eu-amivantamab/Cy5-EGFR), EC50 ratio vs Reference Material; Ex. 2 Formulation 1 (10 mM histidine), 1 month at 40 C
Source text: as §1, with “EGFR” for “c-MET”, “RM.” for “Reference Material (RM).”
as §2, with “EGFR” for “c-MET”, “EGFR,” for “cMet,”, “human EGFR/ErbB1/HER1” for “cMet/HGFR”, “C-terminal His tag” for “c-terminal His-tag”, “EGFR.” for “c-MET.”, “Eu-labeled” for “Eu labeled”

cMET Binding activity relative to Reference Material (%) [1]: 97%
cMET Binding activity relative to Reference Material (%) [2]: 85%
cMET Binding % activity relative to RM [3]: 109%
EGFR Binding activity relative to Reference Material (%) [4]: 41%
cMET Binding activity relative to Reference Material (%) [5]: 106%
EGFR Binding % activity relative to RM [6]: 103%
EGFR Binding activity relative to Reference Material (%) [7]: 92%
EGFR Binding % activity relative to RM [8]: 69%
B1: amivantamab (bispecific antibody, human IgG1, kappa)
heavy 1: not shown
light 1: not shown
heavy 2: not shown
light 2: DIQMTQSPSSVSASVGDRVTITCRASQGISNWLAWFQHKPGKAPKLLIYAASSLLSGVPSRFSGSGSGTDFTLTISSLQPEDFATYYCQQANSFPITFGQGTRLEIKRTVAAPSVFIFPPSDEQLKSGTASVVCLLNNFYPREAKVQWKVDNALQSGNSQESVTEQDSKDSTYSLSSTLTLSKADYEKHKVYACEVTHQGLSSPVTKSFNRGEC
notes: The samples tested were high concentration (160 mg/mL) formulations, fresh or stored or stressed; also called JNJ-61186372; bispecific EGFR-cMet antibody
